Test results reported in patent publication US20110280881A1, “NOVEL ANTI-HSP90 MONOCLONAL ANTIBODY” (RIKEN, priority 2010, published 2011).

B1: 6H8: anti-HSP90 monoclonal antibody produced by hybridoma FERM BP-11222; epitope … (antibody)
VH: QVQLQQSGPELVKPGASVRISCKASGYTFTSYYIHWVKQRPGQGLEWIGWIYPGNVNTKYNEKFKGKATLTADKSSSTAYMQLSSLTSEDSAVYFCARYGNYPFAYWGQGTLVTVSAAKTTAPSVYPLAPVCGDTTGSSVTLGCLVKGYF
VL: DVVMTQTPLSLPVSLGDQASISCRSSQSLVHSNGNTYLHWYLQKPGQSPKLLIYKVSNRFSGVPDRFSGSGSGTDFTLKISRVEAEDLGVYFCSQSTHVPPTFGGGTKLEIKRADAAPTVSIFPPSSEQLTSGGASVVCFLNNFYPKDINVKWKIDGS
B2: 6H8-OVA: high molecular weight conjugate of the 6H8 antibody and maleimide-activated OVA (conjugate)
VH: QVQLQQSGPELVKPGASVRISCKASGYTFTSYYIHWVKQRPGQGLEWIGWIYPGNVNTKYNEKFKGKATLTADKSSSTAYMQLSSLTSEDSAVYFCARYGNYPFAYWGQGTLVTVSAAKTTAPSVYPLAPVCGDTTGSSVTLGCLVKGYF
VL: DVVMTQTPLSLPVSLGDQASISCRSSQSLVHSNGNTYLHWYLQKPGQSPKLLIYKVSNRFSGVPDRFSGSGSGTDFTLKISRVEAEDLGVYFCSQSTHVPPTFGGGTKLEIKRADAAPTVSIFPPSSEQLTSGGASVVCFLNNFYPKDINVKWKIDGS
chain: GSIGAASMEFCFDVFKELKVHHANENIFYCPIAIMSALAMVYLGAKDSTRTQINKVVRFDKLPGFGDSIEAQCGTSVNVHSSLRDILNQITKPNDVYSFSLASRLYAEERYPILPEYLQCVKELYRGGLEPINFQTAADQARELINSWVESQTNGIIRNVLQPSSVDSQTAMVLVNAIVFKGLWEKAFKDEDTQAMPFRVTEQESKPVQMMYQIGLFRVASMASEKMKILELPFASGTMSMLVLLPDEVSGLEQLESIINFEKLTEWTSSNVMEERKIKVYLPRMKMEEKYNLTSVLMAMGITDVFSSSANLSGISSAESLKISQAVHAAHAEINEAGREVVGSAEAGVDAASVSEEFRADHPFLFCIKHIATNAVLFFGRCVSP

What was measured:
[1] = tested on: cell surface HSP90; assay: FACS staining of antigen-presenting cells with the 6H8 antibody; format: binding; conditions: DC2.4, mouse BMDC, human immature and mature DC, mouse peritoneal macrophages, J774
Description: (1) 1.1 mg of the biotinylation reagent EZ-Link (registered trademark) Sulfo-NHS-Biotin (21217, Takara Bio Inc.) was dissolved in 250 μl of pure water (concentration 10 mM). 2 of the solution of the biotinylation reagent was added to 100 of an antibody protein (1 mg/ml), and the reaction was allowed to proceed while cooling on ice for 2 hours. After the reaction, the unreacted biotin reagent was removed using Centricon[5k] (Millipore). The reaction product was adjusted to a final concentration of 1 mg/ml and stored at 4° C. (2) DC2.4 not subjected to membrane permeabilization (1×10^6 cells/0.1 ml), along with the biotinylated anti-HSP90 antibody (1 μg/ml), was incubated at 4° C. for 30 minutes. For negative control, DC2.4 was likewise incubated in an antibody-free PBS. (3) After the unreacted antibody was removed, DC2.4 (1×10^6 cells/0.1 ml), along with PE-cy5 streptavidin (eBioscience, 15-4317-82, used at a concentration of 0.5 μg/ml), was incubated at 4° C. for 30 minutes. (4) After the unreacted PE-cy5 streptavidin was removed, the cells were analyzed by FACS (Becton Dickinson). […]

[2] = tested on: cell surface HSP90 on DC2.4 cells; assay: Internalization of cell surface HSP90 by the 6H8 antibody; format: cell-based
Description: The behavior of the 6H8-HSP90 complex after being recognized by the 6H8 antibody was examined as described below. First, DC2.4 cells were incubated in the presence of biotinylated 6H8 (1 μg/ml) on ice for 30 minutes and washed. Next, the cells were incubated at 37° C. with 5% CO2 for 0, 10, 20, 30, or 60 minutes. After cooling on ice, the cells were stained with PE-Cy5-streptavidin and analyzed by FACS. The results are shown in the left panel of FIG. 4B. Shown in the right panel are bar graphs for the MFI of each group.
Furthermore, immunostaining was performed to compare the behavior of HSP90 with the behaviors of the MHC class 1 molecule H-2K^b and the MHC class II molecule I-A^b. First, DC2.4 cells were incubated in the presence of the biotinylated 6H8 antibody and the FITC-labeled anti-H-2K^b antibody or anti-I-A^b antibody (Pharmingen, the antibody was used at a 100-fold dilution) in the same manner as the above. The cells were stained with PE-Cy5-streptavidin, returned to room temperature and incubated for 20 minutes, and then examined using a confocal microscope. […] It was confirmed that cell surface HSP90 was internalized by the 6H8 antibody.

[3] = tested on: OT-I CD8+ T cells; assay: In vitro cross-presentation assay, DC2.4 cells with OT-I CD8+ T cells, IFNγ; format: cell-based, mouse
Description: A cross-presentation assay was performed using each fraction as an antigen. DC2.4 cells were pulsed with 5 μg/ml (30 μg/ml, only for the fraction 33) of each fraction or 1 mg/ml of free OVA for 3 hours. […]
Next, DC2.4 cells were pulsed with a series of doses of 6H8-OVA (fractions 15 to 19) and free OVA (fraction 33) and incubated along with OT-I CD8^+ T cells and OT-II CD4^+ T cells [splenocytes of an OT-II mouse were recovered, and CD11b-positive cells were removed according to a standard protocol using BD IMag anti mouse CD11b magnetic particles DM (BD Biosciences Pharmingen, 558013); next, CD4-positive cells were purified according to a standard protocol using BD IMag anti mouse CD4 particles DM (BD Biosciences Pharmingen, 551539); the cells obtained were used as the OT-II CD4^+ T cells], and the amount of IFNγ secreted from T cells was measured, whereby the cross-presentation potential of 6H8-OVA was evaluated.

[4] = tested on: OT-I CD8+ T cells; assay: In vivo proliferation of transplanted CFSE-labeled OT-I CD8+ T cells; set-up: species or system mouse; conditions: for proliferation of transplanted OT-I CD8+ T cells: 3 μg fractions 15 to 19 (mixture), three days
Description: First, CFSE-labeled OT-I CD8^+ T cells were generated as follows: A 10 mM CFSE stock solution in DMSO was diluted with PBS to prepare a 10 μM CFSE solution. A pellet of splenocytes prepared in a 15-ml tube was thoroughly loosened by tapping, after which 2 ml of the 10 μM CFSE solution was added thereto, and the mixture was gently vortexed. After being allowed to stand at room temperature for 5 minutes, the cells were washed twice with PBS (5 ml).
The CFSE-labeled OT-I CD8^+ T cells were transplanted to recipient mice from the tail vein. The recipient mice used were a wild-type B6 mouse (WT B6) and a TAP1-deficient mouse [TAP1 KO (purchased from Jackson Laboratory, U.S.A.)]. At the same time, 3 μg of the fractions 15 to 19 (mixture), 3 μg of the fraction 33, or a mixture of the fraction 33 (3 μg) and the free 6H8 antibody (3 μg) was injected. Three days later, splenocytes of each recipient mouse were collected and examined for proliferation of the transplanted cells.
A mixture of the fractions 15 to 19 containing the 6H8-OVA conjugate was injected into recipient mice at a series of doses, and the proliferation of OT-I CD8^+ T cells was examined in the same manner as the above. As a result, higher doses of the mixture more potently promoted the proliferation of CD8^+ T cells, although this effect was observed even at 0.1 μg (upper panel of FIG. 8C).

Molecule	recognition of cell surface HSP90 on antigen-presenting cells (FACS) [1]	internalization of cell surface HSP90 (confocal microscope) ([2]; DC2.4, 20 minutes at room temperature)	time for the 6H8-HSP90 complex to disappear from the cell surface (enter into cells) ([2]; DC2.4, biotinylated 6H8 1 μg/ml, 37° C.)	induction of IFNγ production by OT-I CD8+ T cells ([3]; DC2.4 pulsed 3 hours with fractions 15 to 21, less than 5 μg/ml protein)	effectiveness on OT-I CD8+ T cells relative to free OVA ([3]; DC2.4 pulsed with series of doses, IFNγ secreted)	proliferation of transplanted OT-I CD8+ T cells ([4]; TAP1-deficient mouse)	dose at which promotion of proliferation of OT-I CD8+ T cells was observed ([4]; series of doses injected into recipient mice)	proliferation of transplanted OT-I CD8+ T cells ([4]; wild-type B6 mouse)
B1	recognized cell surface HSP90 on cells other than human PBMC-derived immature DC	internalized	about 10 minutes	–	–	–	–	–
B2	–	–	–	efficiently induced IFNγ production by CD8^+ T cells	at least 100 times	did not induce the proliferation of CD8^+ T cells at all	≤ 0.1 µg	proliferation of CD8^+ T cells was confirmed
